Substrate in data set [1]: CCn1c(=NN=c2sc3cc(S(=O)(=O)O)ccc3n2CC)sc2cc(S(=O)(=O)O)ccc21
The data set can be described thus: purified protein. The class given is biochemical, Irpex lacteus. The settings on record: 0.4 mM H2O2, pH 3.0, 25 °C.

Substrate in data set [2]: Nc1c(N=Nc2ccc(S(=O)(=O)CCOS(=O)(=O)O)cc2)c(S(=O)(=O)O)cc2cc(S(=O)(=O)O)c(N=Nc3ccc(S(=O)(=O)CCOS(=O)(=O)O)cc3)c(O)c12
The data set can be described thus: purified protein. It counts as biochemical, Irpex lacteus. The settings on record: 0.4 mM H2O2, pH 3.0, 25 °C.

Data on 1 protein can be found in PMC8145141, “Characterization of a Dye-Decolorizing Peroxidase from Irpex lacteus Expressed in Escherichia coli: An Enzyme with Wide Substrate Specificity Able to Transform Lignosulfonates” (Journal of Fungi, 2021).

B1: IrlacDyP (recombinant Irpex lacteus DyP) (Irpex lacteus) (protein)
chain: SAGNDSLPFENIQGDILVGMKKDKEKFVFFHINNATTFKSFLKTYAPANITSVQTIIGPASGQPQAFVNLAFSHTGFGALGVADDLQDTAFTAGQFADAPSFGDDTSTWEEAFKGTNVDGVFLIGSDDVTTTNQYRDDLKAKLGDAWTVLLDLDSAARPGAEKGHEHFGYLDGISNPTIPGFGTPFPGQAVVDSGVIFAGRTNDPVTNRPSWALDGSFLVFRKLKQLVPEFHKWTLDNALQNQAGNLTVEEGALLLGSRMFGRWNSGAPIDLTPDVDDPTLGSDPQRNNDFNYIHPGEDLTTDETRCPFTAHVRKANPRDLEAQGLIPDLFHAIRAGTPYGPEVTDAESNSNTTSIDRGLAFVEYQSVISNGFRFQQLNWANNANFPFNKSEPLGLDPVIGQGTRQTFGLDPRNASDSLTIPQIIISNGGEYFFSPSITALVEHFGA
notes: mature form, signal peptide removed, 447 residues; about 50 kDa, non-glycosylated
In the case of B1, in “purified protein [1]”, the Km was determined as 1.5 ± 0.2 µM, the kcat worked out at 49.8 ± 1.3 s⁻¹ and the kcat/Km came to 3.3e+07 ± 4e+06 M⁻¹ s⁻¹. In “purified protein [2]”, the Km was determined as 11.9 ± 2.1 µM and the kcat/Km came to 6.5e+06 ± 1e+06 M⁻¹ s⁻¹.

One may read the Km as the concentration of substrate that gives half-maximal velocity. As usually defined, the kcat is the number of substrate molecules converted per active site and unit of time at saturation. By kcat/Km is commonly meant the second-order rate constant that governs catalysis at low substrate concentration.
